{"source": "patent US20170259217A1", "about": "(GOVERNORS OF THE UNIVERSITY OF ALBERTA, published 2017)", "binders": {"B1": {"name": "vinyl (alkene mid-) functionalized β-sheet peptide, structure (8): acetyl-(octyl)Gly-Ser-Leu-Ser-amino hexenoic acid-Leu-Asp-(octyl)Gly-Asp-Gly-Leu-NH2 (peptide)", "peptide": "Ac-[Gly(octyl)]SLS[amino hexenoic acid][NMeL]D[Gly(octyl)]DGL-NH2", "notes": "Synthetic 11-residue peptide; also called Vinyl-BP1"}}, "molecular_target": "T1, OmpG, bacterial porin (Escherichia coli K12) (Escherichia coli K12, UniProt P76045 22-301, limits assumed)", "T1 sequence (looked up)": "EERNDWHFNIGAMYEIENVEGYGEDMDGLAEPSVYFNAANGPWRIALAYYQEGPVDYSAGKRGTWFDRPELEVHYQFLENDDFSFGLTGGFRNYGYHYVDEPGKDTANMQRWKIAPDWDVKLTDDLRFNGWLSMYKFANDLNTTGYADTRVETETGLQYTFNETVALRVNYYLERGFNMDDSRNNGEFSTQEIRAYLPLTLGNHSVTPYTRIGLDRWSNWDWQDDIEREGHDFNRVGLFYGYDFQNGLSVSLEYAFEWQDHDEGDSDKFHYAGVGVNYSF", "assay": "circular dichroism of peptide-stabilized protein", "note": "Non-standard residues stand in square brackets, D forms with d. amino hexenoic acid = amino hexenoic acid, a vinyl (alkene)-bearing residue; Gly(octyl) = CCCCCCCC[C@H](N)C(=O)O; NMeL = CN[C@@H](CC(C)C)C(=O)O"}
{"binder": "B1", "values": [{"measurement": "binding result", "result": "binds"}]}
